The results in this text go back to PMC2195994 (The Journal of Cell Biology, 2001).

Sequences and labels used below:
T1: GST–IRS-58 (1–432) (human, UniProt Q9UQB8 1-432)
T1 sequence (looked up): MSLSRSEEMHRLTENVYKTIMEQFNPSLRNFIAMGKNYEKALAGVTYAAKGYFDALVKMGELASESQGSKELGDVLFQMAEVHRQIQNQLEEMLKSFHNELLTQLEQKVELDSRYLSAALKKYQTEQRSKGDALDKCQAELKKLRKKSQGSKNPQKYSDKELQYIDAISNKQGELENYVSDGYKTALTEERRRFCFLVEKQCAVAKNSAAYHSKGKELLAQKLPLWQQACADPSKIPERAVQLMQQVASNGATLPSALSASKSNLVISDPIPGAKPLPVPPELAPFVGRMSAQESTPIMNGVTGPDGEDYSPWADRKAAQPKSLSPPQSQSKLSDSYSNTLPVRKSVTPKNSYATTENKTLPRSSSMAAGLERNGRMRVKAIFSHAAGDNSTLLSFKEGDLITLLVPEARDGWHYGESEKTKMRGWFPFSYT

T2: GST–IRS-58 (1–358) (human, UniProt Q9UQB8 1-358)
T2 sequence (looked up): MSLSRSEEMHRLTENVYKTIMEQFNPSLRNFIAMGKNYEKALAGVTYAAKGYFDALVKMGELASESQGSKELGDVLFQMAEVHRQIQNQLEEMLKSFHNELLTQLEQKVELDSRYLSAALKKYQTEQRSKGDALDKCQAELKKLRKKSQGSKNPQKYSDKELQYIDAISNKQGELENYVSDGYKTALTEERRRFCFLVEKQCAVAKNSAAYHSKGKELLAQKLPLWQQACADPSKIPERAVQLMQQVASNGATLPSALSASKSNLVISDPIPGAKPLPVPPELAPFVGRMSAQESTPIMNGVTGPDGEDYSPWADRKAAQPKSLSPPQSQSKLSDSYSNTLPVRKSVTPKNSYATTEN

B1: Cdc42HsQ61L (natural protein)
chain: not shown
B2: IRS-58–GST fusion protein (202–305 amino acid residues) (domain or fragment, human, UniProt Q9UQB8 202-305, looked up)
chain: CAVAKNSAAYHSKGKELLAQKLPLWQQACADPSKIPERAVQLMQQVASNGATLPSALSASKSNLVISDPIPGAKPLPVPPELAPFVGRMSAQESTPIMNGVTGP

Holding throughout (assay): far-Western, overlay or dot blot
For one assay, the target named is T1, GST–IRS-58 (1–432).
The target in a further assay is T2, GST–IRS-58 (1–358).
The next assay has as its target Cdc42Hs L61C40 (human, UniProt P60953-1 1-191, L61 | C40).
The assay “Cdc42HsQ61L” concerns the target B1.

Turning to B1, the binding result in the assay with GST–IRS-58 (1–432) and with GST–IRS-58 (1–358) was “binds” in each case.
Take B2: the binding result with Cdc42Hs L61C40 and with Cdc42HsQ61L was “binds” each time.
